Data taken from the supplement of paper PMC7125110.
± gives the standard error. Fewer inactive variants are shown than the library holds.

B1: glmS ribozyme (parent)
chain: AUAAAAGCGCCAGAACUACAGAAAUGUAGUUGACGAGGAGGAGGUUUAUCGAAUUUUCGGCGGAUGCCUCCAAA

Variants of: B1
Experiment: self-cleavage kobs at 2500 uM GlcN6P; higher = faster cleavage; RNA array
Settings: with glucosamine-6-phosphate
Summary of the method: (§1)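 Sequenced MiSeq chips were the platform: E. coli RNA polymerase transcribed barcoded ribozyme variants on them in situ, and a hybridised Cy3 probe tracked these at 37 °C. After glucosamine-6-phosphate (40 μM to 10 mM) in HEPES/KCl/Mg(OAc)2 buffer was flowed in, tiles were imaged over ~14 h. Signals normalised to baseline and to non-cleaving reference variants were reduced to per-tile medians and fit to one- or two-exponential decays to obtain kobs. kcat and KM were derived through weighted Michaelis–Menten fits across concentrations.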

Variant | self-cleavage kobs at 2500 uM GlcN6P [s⁻¹]
AUAAAAGCGCCAGAUCUACAGAAAUGUAGUUGACGAAGAGGAGGUUUAUCGAAUUUUCGGCGGAUCCCUCCAAA | 7.17e-05 ± 1.8e-05
AUAAAAGCGCCAGAUCUACAGAAAUGUAGUUGACUAGGAAGAGGUUUAUCGAAUUUUCGGCGGAUGCCUCCAAA | < 1e-05
AUAAAAGCGCCAGAGCUACAGAAAUGUAGUUGACGACGAGGAGGUUUAUCGAAUUUGCGGCGGAUGUCUCCAAA | < 1e-05
AUAAAAGCGCCAGAAGUACAGAAAUGUAGUUGACGGGGAGGAGGUUUAUCGAAUUUUCGGCGGAUGCCGCCAAA | 4.76e-05 ± 2.4e-05
AUAAAAGCGCCAGAUCUACAGAAAUGUAUUUGACGAGGAGGAGGUUUAUCGAAUAUUCGGCGGAUGCCUCCAAA | 0.00225 ± 0.00062
AUAAAAGCGCCAGAAGUACAGAAAUGUAGAUGACGAGGAGGAGGUUUAUCGAAUUUUCGGCGGAUGCCUCUAAA | 0.000103 ± 3.5e-05
AUAAAAGCGCCAGAUCUACAGAAAUGUAGUUCACGCGGACGAGGUUUAUCGAAUUUUCGGCGGAUGCCUCCAAA | < 1e-05
AUAAAAGCGCCAGAAGUACAGAAAUGUAGUUGACGAGGAGGAGGUUUAUCAAAUUUUCGACGAAUGCCUACAAA | 4.28e-05 ± 1.9e-05
AUAAAAGCGCCAGAAGUACAGAAAUGUAGUUGACGAUGAGGAGUUUAAUCCAAUUUUCGGCGGAUGCAUCCAAA | < 1e-05
AUAAAAGCGCCAGAAAUACAGAAAUGUAGUUUACGAGGAGGAUGUUUAUCGAAUUUUCGGGGGAUGCCUCCAAA | < 1e-05
AUAAAAGCGCCAGAAAUACAGAAAUGUAGUUGACGAGGACGUGGUUUAUCGAAUUUUCGGCGGAUGCCUCCAAA | < 1e-05
AUAAAAGCGCCAGAGCUACAGAAAUGUAGUUGACGAGGAGGAGGUUUAUCGAAUUUACGGCGGAUGCAUCCAAA | 5.07e-05 ± 1.9e-05
AUAAAAGCGCCAGAGCUACAGAAAUGUAGUUGACGAGGAGGAGGUUUAUCGAAUAUUCGGCGGUUGCCUCCAAA | 9.74e-05 ± 1.8e-05
AUAAAAGCGCCAGAGCUACAGAAAUGUAGUUGACGAGGAGGAGGGCUAUCGAAUUUUCGGCGGAUGCCUCCAAA | 0.00283 ± 0.001
AUAAAAGCGCCAGAUCUACAGAAAUGUAGUUGACGAGGAGGAGGUUUAUCGAACUUUCGGCGGAAGCCUCCAAA | 0.000123 ± 2.8e-05
AUAAAAGCGCCAGAAGUACAGAAAUGUAGUUGACGAUGAGGGGGUUUAUCGAAUUUUCGGCGGAUGCCUCCAAA | < 1e-05
AUAAAAGCGCCAGAGCUACAGAAAUGUAGUUGACGAGGAGGAGGUUGAUCGAAUUUACGGCGGAUGCCUCGAAA | 5.79e-05 ± 2.3e-05
AUAAAAGCGCCAGAAUUACAGAAAUGUAGUUGACGAGGUGGAGGUUUAUCGAAGUUUCGGCGGAUGCCUCCAAA | 0.00743 ± 0.0018
AUAAAAGCGCCAGAAGUACAGAAAUGUAGUUUACGAGGAGGAGGUUUAUCGAAUUUUCGGCGGAUACCUCCAAA | 0.000109 ± 3.9e-05
AUAAAAGCGCCAGAAAUACAGAAAUGUAGUUGACGAGGAGCAGGUUUAUCGAAUUUUCGGCGGAUGCCUUCAAA | 5.88e-05 ± 1.8e-05
AUAAAAGCGCCAGAAGUACAGAAAUGUAGUUGAUGCGGAGGAGGUUUAUCGAAUUUUCGGCGGAUGCCUCCAAA | < 1e-05
AUAAAAGCGCCAGAAAUACAGAAAUGUAGUUGACGAGCACGAGUUUUAUCGAAUUUUCGGCGGAUGACCCCAAA | < 1e-05

Variant | self-cleavage kobs at 2500 uM GlcN6P [s⁻¹]
AUAAAAGCGCCAGAAAUACAGAAAUGUAGUUGAAGAGGAGGAGGUUUAUCGAAUUUUCGGCGGAAGCCUCCAAA | < 1e-05
AUAAAAGCGCCAGAAAUACAGAAAUGUAGUUGACGGGGAGGAGGUUUAUCGAAUUUUCGGCGGAGGCCUCCAAA | < 1e-05
AUAAAAGCGCCAGAGCUACAGAAAUGUAGUUGACGAGGAGUAGGUUUAUCGAAUUGUCGGCGGAUGCCUCGAAA | 8.85e-05 ± 2e-05
AUAAAAGCGCCAGAAGUACAGAAAUGUAGUUGACGAGGAGGGGGUUUAUCGAAUUUUCGGCGGUUACAUCCAAA | < 1e-05
AUAAAAGCGCCAGAAUUACAGAAAUGUAGUUGGCGAGGAGGAGGUUUAUCGAAUUUUCGGCGGAUGCCAGCAAA | 7.7e-05 ± 3.3e-05
AUAAAAGCGCCAGAAGUACAGAAAUGUACUUGACGAGGAGGAGGUUUAUCGAUUUUUCGGCGGAUGCCUCCAAA | 0.00684 ± 0.0022
AUAAAAGCGCCAGAAAUACAGAAAUGUAGUCGACGAGGAGGAGGUUUAUCGAAUUUUCGGCGGAUGCCUACAAA | < 1e-05
AUAAAAGCGCCAGAAAUACAGAAAUGUAGUUGACGAGGAGGAUGUUUAUCAAAUUUUCGGCGGAUGCCUCCAAA | < 1e-05
AUAAAAGCGCCAGAAGUACAGAAAUGUAGUUGACGAGGAGUAGGUUUAUGGAAUUUUCGGCGGAUGCCUCCAAA | < 1e-05
AUAAAAGCGCCAGAAAUACAGAAAUGUAGUUGACGAGGAGGAGGUUUAUCGAAUAUUCCGCGGAUGUCUGCAAA | 9.74e-05 ± 3.6e-05
AUAAAAGCGCCAGAUUUACAGAAAUGUAGUUGACGAGGAGGAGGAUUAUCGAAUUUUCGGCGGAUGCCUCCAAA | 0.00158 ± 0.00051
AUAAAAGCGCCAGAUCUACAGAAAUGUAGUUGACGAGGAGGAGAUUUCUCGAAUUAUCGGCGGAUGCCUACAAA | < 1e-05
AUAAAAGCGCCAGAAGUACAGAAAUGUACUGGACGAGGAGGAGGUUUAUCGAAUUUUCGGCGGAUGCCUCCAAA | 0.00447 ± 0.00064
AUAAAAGCGCCAGAAAUACAGAAAUGUAGUUGACGAGGAGGAGGUCUAUCGAAUUCUCGGCGUAUGCCUUCAAA | < 1e-05
AUAAAAGCGCCAGAUCUACAGAAAUGUAGUUGACGAGGAGCAGGUUUAUCGAAUUUUCGGCGGAUGCCUCCAAA | 2.7e-05 ± 1.2e-05
AUAAAAGCGCCAGAAGUACAGAAAUGUAGUGGACGAGGAGGGGGUUUAUCGAAUUUUCGGCGGAUGCCUCCAAA | 0.000761 ± 0.0003
AUAAAAGCGCCAGAAGUACAGAAAUGUAGUUGACGAGGAGGAGGUUUAUCGAAUAUUCGGCGGAUGUCUCAAAA | 8.06e-05 ± 2.9e-05
AUAAAAGCGCCAGAAGUACAGAAAUGUAGUUCACGAGGAGUAGGUUUAUCGAAUUUUCGGCGGAUGCCCCCAAA | < 1e-05
AUAAAAGCGCCAGAAGUACAGAAAUGUAUUUGACGAGGUGGAGGUUUAUCUAAUUUUCGGCGGAUGCCUCUAAA | < 1e-05
AUAAAAGCGCCAGAUGUACAGAAAUGUAGUUGUCGAGGAGGAGGUUUACCGAAUUUUCGGCGGAUGCCUCCAAA | < 1e-05
AUAAAAGCGCCAGAUCUACAGAAAUGUAGUUGACUAGGAGGAGGUUUAUCGAAUUUUCGGCGGAUGGCUCCAAA | < 1e-05
AUAAAAGCGCCAGAGCUACAGAAAUGUAGUUGACGAGGAGGAGGUUUAUCUAAUUUUCGGAGGAUGCCUCCAAA | < 1e-05

Variant | self-cleavage kobs at 2500 uM GlcN6P [s⁻¹]
AUAAAAGCGCCAGAGCUACAGAAAUGUAGUUGACGAGGAGGAGGUGUAUCCAAUCUUCAGCGUAUGCCUCCAAA | < 1e-05
AUAAAAGCGCCAGAUCUACAGAAAUGUAGUUGACGAGGGGGAGGUUUAUCGGAUUUUCGGCGGAUGCCUCCAAA | 0.000162 ± 6.5e-05
AUAAAAGCGCCAGAUCUACAGAAAUGUAGUUGACGAGGAGGUCGUUUAUCGAAUUUUCGGGGGAUGCCACCAAA | < 1e-05
AUAAAAGCGCCAGAUCUACAGAAAUGUAGUUGACGAGGAGGAGGUUUAUCGAAUUGUCGGCGGAUGCCUUCAAA | 0.000554 ± 0.00014
AUAAAAGCGCCAGAUCUACAGAAAUGUAAUUGACGAGGAGGAGGUUUAUCGAAUUUUCGGCAGAUGCCUCCAAA | < 1e-05
AUAAAAGCGCCAGAUCUACAGAAAUGUAGUUGACGAGGAGGAGGUCUAUCGAAUUUUCGGCGGAUGCCUGCAAA | 8.21e-05 ± 2.2e-05
AUAAAAGCGCCAGAAGUACAGAAAUGUAGAUGACUCGGAGGAGGUUUAUCGAUUUUUCGGCGGAUGCCUCCAAA | < 1e-05
AUAAAAGCGCCAGAAAUACAGAAAUGUAGUUGACGAGGAGGUGGUUUAUCGAAUUUUCGGCGGUUGCCUCCAAA | < 1e-05
AUAAAAGCGCCAGAGCUACAGAAAUGUAGUUGACGAGGAGGAGGUUUAUCGAAUUUUCGUCGCAUGCCUCCAAA | < 1e-05
AUAAAAGCGCCAGAAGUACAGAAAUGUAGUUGACGAGGACGAGGGUUAUCGAAUUUUCGGCGGAUGCCUCCAAA | 6.01e-05 ± 2.1e-05
AUAAAAGCGCCAGAAAUACAGAAAUGUAAUUGACGAGGAGGAGGUUUAUCGAAUUUUCGGCGGAUGCCUACAAA | 6.39e-05 ± 2.4e-05
AUAAAAGCGCCAGAUCUACAGAAAUGUAGUUGACGAUGAGGACGUUUAUCGAAUUAUCGGCGGAUGCGUCGAAA | < 1e-05
AUAAAAGCGCCAGAUCUACAGAAAUGUAGUUGUCGAGGAGGAGGUUUAUCGAAUUUUCUGCGGAUGCCUCCAAA | < 1e-05
AUAAAAGCGCCAGAGCUACAGAAAUGUAGUUGACGAGGAGGAGGUAUUUCGAAUUUUCGGCGGAUGCCUCCAAA | 5.82e-05 ± 2.3e-05
AUAAAAGCGCCAGAUCUACAGAAAUGUAGUUGACGAGGAGUGGGUUUAUCGAAUUUCCGGCGGAUGCCUACAAA | 7.37e-05 ± 2.1e-05
AUAAAAGCGCCAGAAAUACAGAAAUGUAGUAGACGAGGGGGAGGUUUAUCGAAUUUCCGUCGGAUGCCUCCAAA | < 1e-05
AUAAAAGCGCCAGAAAUACAGAAAUGUAGUUGACGAGGAGGAGGUUUAUCGUAUUUUCGGCGGAUGCCUGCAAA | 0.0002 ± 9.8e-05
AUAAAAGCGCCAGAUCUACAGAAAUGUAGUUGACGAGGAGGAGCUUUAUCGAAUUUUCGGCGGGUGCCUCCAAA | < 1e-05
AUAAAAGCGCCAGAGCUACAGAAAUGUAGUAGACGAGGAGGAGGUUUAUCGAGUUUUCGGCGGAUGCCUCCAAA | 0.01 ± 0.0031
AUAAAAGCGCCAGAUCUACAGAAAUGUAGUUGACGAGGAGGAGGAUUAUCGAAUUUCCGGCGGAUGCCUCCAAA | 4.29e-05 ± 1.9e-05
AUAAAAGCGCCAGAUCUACAGAAAUGUAGUUGACUAGUAGGAGGUUUAGCGAAAUUUCGGCGGAUGCCUCCAAA | < 1e-05
AUAAAAGCGCCAGAAAUACAGAAAUGUAGUUGACGAGGAGGAGGUUUAUGGAAUUUUCGGCGGAUGACUCCAAA | 0.00038 ± 0.00013

Variants of: B1
Experiment: self-cleavage kobs at 10000 uM GlcN6P; higher = faster cleavage; RNA array
Settings: with glucosamine-6-phosphate
Summary of the method: as §1

Variant | self-cleavage kobs at 10000 uM GlcN6P [s⁻¹]
AUAAAAGCGCCAGAUCUACAGAAAUGUAGUUGACGAGGAGGAGGUUUAUCGAACUUUCGGCGGAAGCCUCCAAA | 0.000335 ± 3.8e-05
AUAAAAGCGCCAGAAGUACAGAAAUGUAGUUUACGAGGAGGAGGUUUAUCGAAUUUUCGGCGGAUACCUCCAAA | 0.000209 ± 5.7e-05
AUAAAAGCGCCAGAAAUACAGAAAUGUAGUUGAAGAGGAGGAGGUUUAUCGAAUUUUCGGCGGAAGCCUCCAAA | < 1e-05
AUAAAAGCGCCAGAAGUACAGAAAUGUAGUUGACGAGGAGUAGGUUUAUGGAAUUUUCGGCGGAUGCCUCCAAA | < 1e-05
AUAAAAGCGCCAGAAGUACAGAAAUGUAGUUGACGAGGAGGAGGUUUAUCGAAUAUUCGGCGGAUGUCUCAAAA | 3.71e-05 ± 1.3e-05
AUAAAAGCGCCAGAUCUACAGAAAUGUAGUUGACGAGGGGGAGGUUUAUCGGAUUUUCGGCGGAUGCCUCCAAA | 0.000571 ± 0.00013
AUAAAAGCGCCAGAUCUACAGAAAUGUAAUUGACGAGGAGGAGGUUUAUCGAAUUUUCGGCAGAUGCCUCCAAA | < 1e-05
AUAAAAGCGCCAGAUCUACAGAAAUGUAGUUGACGAGGAGGAGGUCUAUCGAAUUUUCGGCGGAUGCCUGCAAA | 3.23e-05 ± 1.5e-05
